Results as given in PMC10292688.
Like-named read-outs stand apart in the source and are kept apart here.

Key:
Test in all cases: SAXS
AIF H454A mutant = AIF H454A mutant (UniProt O95831)
[1] = target: AIF R529A mutant (Cβ-clasp) (UniProt O95831)
[2] = target: AIF R529A mutant (Cβ-clasp) (UniProt O95831); remark: listed apart in the source

Row | stoichiometry N (AIF H454A mutant) | stoichiometry N [1] | stoichiometry N [2] | Substance
1 | 2 |  |  | AIF H454A mutant (from UniProt O95831 55-613) (natural protein)
2 |  | 2 | 2 | AIF R529A mutant (Cβ-clasp) (from UniProt O95831 55-613) (natural protein)
